# From patent publication US11814447B2, “Peptide ligands for binding to EphA2” (BICYCLERD LIMITED, priority 2018, dated 2023)
# Starred links: 1 amine or outer side, 2 acyl side, 3 side chain; linkers in the order of their positions; H or OH if unused. Positions of bridges follow the written chain, without caps; N, C: chain ends. Non-standard residues stand in square brackets, D forms with d. Primed or numbered codes have the meaning given here. No end group written: not given here. TBMB′ = 1,3,5-tris(bromomethyl)benzene, 1,3,5-tris(methylene)benzene core, three thioethers to Cys; TATA = O=C(CC[*:1])N1CN(C(=O)CC[*:2])CN(C(=O)CC[*:3])C1; 2Nal = N[C@@H](Cc1ccc2ccccc2c1)C(=O)O; TBMB = c1c(C[*:1])cc(C[*:3])cc1C[*:2]; Pip = O=C(O)[C@@H]1CCCCN1; Aib = CC(C)(N)C(=O)O; Sar = CNCC(=O)O
# Columns and labels:
# [1] = target: T1, Human EphA2 (Ecto), C-terminal polyHis (Human, UniProt P29317 24-537); assay: fluorescence polarisation competition; competitor fluorescent Compound 66
# T1 construct: extracellular domain; also called EPH receptor A2; ephrin type-A receptor 2
# T1 sequence (P29317 24-537): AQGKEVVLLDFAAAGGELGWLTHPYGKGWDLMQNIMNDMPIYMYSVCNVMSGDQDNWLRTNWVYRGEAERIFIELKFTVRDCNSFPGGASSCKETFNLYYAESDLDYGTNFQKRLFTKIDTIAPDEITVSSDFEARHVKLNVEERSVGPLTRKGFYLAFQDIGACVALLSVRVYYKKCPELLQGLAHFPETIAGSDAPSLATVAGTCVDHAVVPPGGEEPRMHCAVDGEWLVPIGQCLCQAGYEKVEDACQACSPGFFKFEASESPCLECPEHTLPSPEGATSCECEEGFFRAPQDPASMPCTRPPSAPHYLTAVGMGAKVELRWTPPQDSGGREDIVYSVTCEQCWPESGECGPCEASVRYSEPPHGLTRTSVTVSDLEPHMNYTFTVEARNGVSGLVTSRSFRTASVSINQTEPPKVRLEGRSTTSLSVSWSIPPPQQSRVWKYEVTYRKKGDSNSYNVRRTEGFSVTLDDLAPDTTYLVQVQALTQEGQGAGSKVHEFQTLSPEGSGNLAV
# Description: (§1) Peptides without a fluorescent tag were tested in competition with a peptide with a fluorescent tag and a known Kd (Table 2). Peptides were diluted to an appropriate concentration in assay buffer as described in the direct binding assay with a maximum of 5% DMSO, then serially diluted 1 in 2. […] Measurements were conducted as for the direct binding assay, however the gain was determined prior to the first measurement. Data analysis was in Systat Sigmaplot version 12.0 where the mP values were fit to a user defined cubic equation to generate a Ki value: […]
# Human EphA2 (Ecto) = target: T2, Human EphA2 (Ecto) (Human, UniProt P29317 24-537); assay: FP competition; tracer Reference Compound C
# T2 construct: extracellular domain; in-house)
# T2 sequence (P29317 24-537): as above
# Description: as §1
Ki [1] [nM],Ki (Human EphA2 (Ecto)) [nM],Binder
95.8,,"ACPWGPMWCPVNRPGCA (linker 2-9-16 via TBMB (inferred), also called Compound 46) [Bicycle Compound Number 46 (TBMB scaffold)]"
,30,"ACPLVNPLCLHPGWTCA (linker 2-9-16 via TATA (inferred)) [Bicycle Compound Number 64 (TATA scaffold), ACPLVNPLCLHPGWTCA]"
,56.1,"ACPLVNPLCLHPGWSCA (linker 2-9-16 via TATA) [Bicycle Compound Number 86 (TATA scaffold), ACPLVNPLCLHPGWSCA]"
,15.2,"ACPLVNPLCLHPGWICA (linker 2-9-16 via TATA (inferred)) [Bicycle Compound Number 54 (TATA scaffold), ACPLVNPLCLHPGWICA]"
,20,"ACPMVNPLCLHPGWTCA (linker 2-9-16 via TATA) [Bicycle Compound Number 97 (TATA scaffold), ACPMVNPLCLHPGWTCA]"
,46.2,"ACPLVNPLCLAPGWTCA (linker 2-9-16 via TATA) [Bicycle Compound Number 82 (TATA scaffold), ACPLVNPLCLAPGWTCA]"
,15.4,"ACPMVNPLCLHPGWICA (linker 2-9-16 via TATA (inferred)) [Bicycle Compound Number 53 (TATA scaffold), ACPMVNPLCLHPGWICA]"
,53.9,"ACPLVNPLCLEPGWTCA (linker 2-9-16 via TATA) [Bicycle Compound Number 84 (TATA scaffold), ACPLVNPLCLEPGWTCA]"
,35.4,"ACPLVNPLCLVPGWSCA (linker 2-9-16 via TATA (inferred)) [Bicycle Compound Number 57 (TATA scaffold), ACPLVNPLCLVPGWSCA]"
,20.6,"ACPLVNPLCLHPGWRCA (linker 2-9-16 via TATA (inferred)) [Bicycle Compound Number 55 (TATA scaffold), ACPLVNPLCLHPGWRCA]"
,9.8,"TPRCPLVNPLCLMPGWTCA (linker 4-11-18 via TATA) [Bicycle Compound Number 81 (TATA scaffold), TPRCPLVNPLCLMPGWTCA]"
,140,"ACGFMGLEPCEMYCA (linker 2-10-14 via TATA (inferred)) [Bicycle Compound Number 50 (TATA scaffold), ACGFMGLEPCEMYCA]"
,1.76,"Ac-CPLVNPLCLHPGWTCLHG (linker 1-8-15 via TATA) [Bicycle Compound Number 74 (TATA scaffold), Ac-CPLVNPLCLHPGWTCLHG]"
,184,"ACPLVNPLCNLPGWTCA (linker 2-9-16 via TATA (inferred)) [Bicycle Compound Number 56 (TATA scaffold), ACPLVNPLCNLPGWTCA]"
458,,"[Sar][Sar]ACP[2Nal]GPFWCPVNRPGC (linker 4-11-18 via TBMB, also called Compound 77) [Bicycle Compound Number 77 (TBMB scaffold)]"
,228,"ACPLVNPLCLHPG[2Nal]SCRGQ (linker 2-9-16 via TATA) [Bicycle Compound Number 93 (TATA scaffold), ACPLVNPLCLHPG(2Nal)SCRGQ]"
,114,"ACPLVNPLCLMPGWGCA (linker 2-9-16 via TATA (inferred)) [Bicycle Compound Number 59 (TATA scaffold), ACPLVNPLCLMPGWGCA]"
,38.4,"ACPLVNPLCLLDGWTCA (linker 2-9-16 via TATA (inferred)) [Bicycle Compound Number 58 (TATA scaffold), ACPLVNPLCLLDGWTCA]"
,84.4,"ACGFMGLVPCELYCADN (linker 2-10-14 via TATA (inferred)) [Bicycle Compound Number 51 (TATA scaffold), ACGFMGLVPCELYCADN]"
,17.5,"AXDCPLVNPLCLHPGWTCAXXXXXXK (N-terminal acetyl; X2 = HArg (homoarginine); X at 20-25 = Sar; K26 = D-Lys; 3 Cys thioether-linked to TATA scaffold) [Bicycle Compound Number 69 (TATA scaffold), Ac-A(HArg)DCPLVNPLCLHPGWTCA-Sar6-(D-K)]"

Ki [1] [nM],Ki (Human EphA2 (Ecto)) [nM],Binder
,10.1,"RPACPLVNPLCLHPGWTCA (linker 4-11-18 via TATA) [Bicycle Compound Number 70 (TATA scaffold), RPACPLVNPLCLHPGWTCA]"
,11.1,"RPPCPLVNPLCLHPGWTCA (linker 4-11-18 via TATA) [Bicycle Compound Number 71 (TATA scaffold), RPPCPLVNPLCLHPGWTCA]"
138,,"[Sar][Sar]ACPWGPYWCPVNRPGC (linker 4-11-18 via TBMB′, also called Compound 91) [Bicycle Compound Number 91 (TBMB scaffold)]"
,162,"ACPLVNPLCLHPG[2Nal]TCLHG (linker 2-9-16 via TATA) [Bicycle Compound Number 79 (TATA scaffold), ACPLVNPLCLHPG(2Nal)TCLHG]"
,142,"ACGFMGLVPCNVFCA (linker 2-10-14 via TATA (inferred)) [Bicycle Compound Number 45 (TATA scaffold), ACGFMGLVPCNVFCA]"
,2.48,"XXXXXXXXXXXACPLVNPLCLHPGWTCLHG (N-terminal (β-Ala)-Sar10; 3 Cys thioether-linked to TATA scaffold) [Bicycle Compound Number 75 (TATA scaffold), (β-Ala)-Sar10-ACPLVNPLCLHPGWTCLHG]"
,59,"ACPLVNPLCLYGSWKCA (linker 2-9-16 via TATA (inferred)) [Bicycle Compound Number 63 (TATA scaffold), ACPLVNPLCLYGSWKCA]"
,13.2,"ACPLVNPLCLTPGWTCTNT (linker 2-9-16 via TATA) [Bicycle Compound Number 94 (TATA scaffold), ACPLVNPLCLTPGWTCTNT]"
497,,"[Sar][Sar]ACPWG[Pip]FWCPVNRPGC (linker 4-11-18 via TBMB′, also called Compound 82) [Bicycle Compound Number 82 (TBMB scaffold)]"
139,,"[Sar][Sar]AC[Aib]WGPFWCPVNRPGC (linker 4-11-18 via TBMB, also called Compound 74) [Bicycle Compound Number 74 (TBMB scaffold)]"
,185,"ACGFMGLEPCELFCMPK (linker 2-10-14 via TATA (inferred)) [Bicycle Compound Number 47 (TATA scaffold), ACGFMGLEPCELFCMPK]"
,67.1,"ACPLVNPLCMMGGWKCA (linker 2-9-16 via TATA (inferred)) [Bicycle Compound Number 62 (TATA scaffold), ACPLVNPLCMMGGWKCA]"
,144,"ACGFMGLEPCELYCAHT (linker 2-10-14 via TATA (inferred)) [Bicycle Compound Number 49 (TATA scaffold), ACGFMGLEPCELYCAHT]"
,115,"ACPLVNPLCLTSGWKCA (linker 2-9-16 via TATA (inferred)) [Bicycle Compound Number 52 (TATA scaffold), ACPLVNPLCLTSGWKCA]"
,96.2,"ACPLVNPLCMIGNWTCA (linker 2-9-16 via TATA (inferred)) [Bicycle Compound Number 60 (TATA scaffold), ACPLVNPLCMIGNWTCA]"
,10.9,"ACPLVNPLCLEPGWTCAKR (linker 2-9-16 via TATA) [Bicycle Compound Number 85 (TATA scaffold), ACPLVNPLCLEPGWTCAKR]"
,242,"ACPLVNPLCLMTGWSCA (linker 2-9-16 via TATA (inferred)) [Bicycle Compound Number 61 (TATA scaffold), ACPLVNPLCLMTGWSCA]"
,1.64,"Ac-CPLVNPLCLHPGWSCRGQ (linker 1-8-15 via TATA) [Bicycle Compound Number 88 (TATA scaffold), Ac-CPLVNPLCLHPGWSCRGQ]"
,234,"ACGFMGLEPCVTYCA (linker 2-10-14 via TATA) [Bicycle Compound Number 43 (TATA scaffold), ACGFMGLEPCVTYCA]"
,155,"ACGFMGLVPCEVHCA (linker 2-10-14 via TATA) [Bicycle Compound Number 41 (TATA scaffold), ACGFMGLVPCEVHCA]"
